T1: h5MP1 (WT) (human, UniProt Q9Y6E2 1-419)
T1 sequence (looked up): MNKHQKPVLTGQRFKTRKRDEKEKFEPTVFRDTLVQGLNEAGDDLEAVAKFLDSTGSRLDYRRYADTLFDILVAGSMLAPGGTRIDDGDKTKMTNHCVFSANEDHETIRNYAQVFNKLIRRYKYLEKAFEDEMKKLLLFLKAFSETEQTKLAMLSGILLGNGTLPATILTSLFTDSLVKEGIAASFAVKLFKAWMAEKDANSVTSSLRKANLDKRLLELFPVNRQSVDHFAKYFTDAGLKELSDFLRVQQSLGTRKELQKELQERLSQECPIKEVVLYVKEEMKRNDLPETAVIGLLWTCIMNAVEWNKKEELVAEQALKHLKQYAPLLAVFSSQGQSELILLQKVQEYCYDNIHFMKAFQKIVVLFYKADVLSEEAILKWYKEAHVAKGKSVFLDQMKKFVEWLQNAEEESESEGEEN

T2: h5MP1-BN1 (human, UniProt Q9Y6E2 1-419, K380Q | K383Q | H386Q | K389Q | K391Q)
T2 sequence (looked up): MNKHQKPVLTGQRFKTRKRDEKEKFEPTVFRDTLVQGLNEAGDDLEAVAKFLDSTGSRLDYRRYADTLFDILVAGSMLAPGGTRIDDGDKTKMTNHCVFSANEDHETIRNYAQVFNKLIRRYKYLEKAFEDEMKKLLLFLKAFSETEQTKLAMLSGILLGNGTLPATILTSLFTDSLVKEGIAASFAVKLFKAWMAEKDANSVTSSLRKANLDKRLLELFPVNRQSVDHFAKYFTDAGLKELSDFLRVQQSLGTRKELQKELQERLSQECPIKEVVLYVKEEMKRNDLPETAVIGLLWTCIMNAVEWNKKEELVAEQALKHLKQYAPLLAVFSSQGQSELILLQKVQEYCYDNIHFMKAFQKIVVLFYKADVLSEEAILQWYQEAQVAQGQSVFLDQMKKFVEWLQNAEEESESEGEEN

T3: GST-h5MP1 (human, UniProt Q9Y6E2 1-419)
T3 sequence (looked up): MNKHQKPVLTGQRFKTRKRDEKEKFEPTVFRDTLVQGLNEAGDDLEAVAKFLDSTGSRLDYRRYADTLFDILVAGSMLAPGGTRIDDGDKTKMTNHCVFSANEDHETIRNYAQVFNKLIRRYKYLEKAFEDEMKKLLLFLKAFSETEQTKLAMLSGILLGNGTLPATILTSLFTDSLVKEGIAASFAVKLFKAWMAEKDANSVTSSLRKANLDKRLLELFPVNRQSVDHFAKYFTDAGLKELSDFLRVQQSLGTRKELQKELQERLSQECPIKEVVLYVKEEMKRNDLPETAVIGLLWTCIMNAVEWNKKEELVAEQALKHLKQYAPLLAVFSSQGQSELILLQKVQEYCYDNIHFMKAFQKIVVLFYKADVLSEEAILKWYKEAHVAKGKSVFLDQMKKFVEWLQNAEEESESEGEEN


Assays:
h5MP1 (WT) = target: T1, h5MP1 (WT); assay: ITC
h5MP1-BN1 = target: T2, h5MP1-BN1; assay: ITC
GST-h5MP1 = target: T3, GST-h5MP1; assay: pull-down

binding result (h5MP1 (WT))	binding result (h5MP1-BN1)	binding result (GST-h5MP1)	Binder
binds	binds	–	heIF2β_(53-136) (domain or fragment, human, UniProt P20042 53-136, looked up) DLEADEEDTRKKDASDDLDDLNFFNQKKKKKKTKKIFDIDEAEEGVKDLKIESDVQEPTEPEDDLDIMLGNKKKKKKNVKFPDE
–	–	binds	GB-heIF3c_(20-102) (domain or fragment, human, UniProt Q99613 20-102, looked up) EELVTKPVGGNYGKQPLLLSEDEEDTKRVVRSAKDKRFEELTNLIRTIRNAMKIRDVTKCLEEFELLGKAYGKAKSIVDKEGV

From publication PMC8363759 (Cell reports, 2021)
